Data set [1] deals with T1, HMGA1b (UniProt P17096-2 1-96). Briefly: EMSA. (Mobility shift assays separate free from complexed probe on a gel.)
Data set [2] addresses T1, HMGA1b. Briefly: competition.
Data set [3] concerns the target T1, HMGA1b. Description: competition. The source holds these as a separate data set.

B1: ATf10 (dsDNA)
DNA 1: CGCGGGGCCGCCGCGAAAAAAAAAAACCC
DNA 2: GGGTTTTTTTTTTTCGCGGCGGCCCCGCG
With B1, the binding result in the data set with HMGA1b [1] was “binds”.

B2: ATs10 (dsDNA)
DNA 1: GGGTTTTTTTTTTCGCGGCGGCCCCGCG
DNA 2: CGCGGGGCCGCCGCGAAAAAAAAAACCC
modifications: phosphorothioate linkages after each of the 10 T (T4-T13) of strand 1; complement unmodified
As for B2, the binding signal in the data set with HMGA1b [2] was ~1 ratio to ATf10.

B3: Mix10 (dsDNA)
DNA 1: GGGCGTGACTGAGCGCGGCGGCCCCGCG
DNA 2: CGCGGGGCCGCCGCGCTCAGTCACGCCC
As to B3, the binding result in the data set with HMGA1b [3] is on record as “no binding”.

B4: CG10 (dsDNA)
DNA 1: GGGCCCCCCCCCCCGCGGCGGCCCCGCG
DNA 2: CGCGGGGCCGCCGCGGGGGGGGGGGCCC
B4: in the data set with HMGA1b [3], the binding result is recorded as “no binding”.

The values above are taken from publication PMC3914216.
